From PMC2719869, “A Mouse Model for the Metabolic Effects of the Human Fat Mass and Obesity Associated FTO Gene” (PLoS Genetics, 2009)

Molecular target: the molecule itself
Experiment: native MS; non-denaturing nano-electrospray MS; 10 uM protein (Q-ToF) or 15 uM protein (Synapt HDMS) sprayed from 15 mM ammonium acetate pH 7.5, cone voltage 80 V; monomer to dimer

Row | Protein | stoichiometry N
1 | wild-type murine FTO (fat mass and obesity associated protein), full length (enzyme, mouse, UniProt Q8BGW1 1-502, looked up, also called mFTO; wild-type mFTO; source: E. coli, soluble; prepared as previously reported for full length mFTO [8]) MKRVQTAEEREREAKKLRLLEELEDTWLPYLTPKDDEFYQQWQLKYPKLVFREAGSIPEELHKEVPEAFLTLHKHGCLFRDVVRIQGKDVLTPVSRILIGDPGCTYKYLNTRLFTVPWPVKGCTVKYTEAEIAAACQTFLKLNDYLQVETIQALEELAVREKANEDAVPLCMAEFPRAGVGPSCDDEVDLKSRAAYNVTLLNFMDPQKMPYLKEEPYFGMGKMAVSWHHDENLVDRSAVAVYSYSCEGSEDESEDESSFEGRDPDTWHVGFKISWDIETPGLTIPLHQGDCYFMLDDLNATHQHCVLAGSQPRFSSTHRVAECSTGTLDYILERCQLALQNVLNDSDDGDVSLKSFDPAVLKQGEEIHNEVEFEWLRQFWFQGNRYKLCTDWWCEPMTHLEGLWKKMESMTNAVLREVKREGLPVEQRSEILSAILVPLTVRQNLRKEWHARCQSRVVRTLPVQQKPDCRPYWEKDDPSMPLPFDLTDVVSELRGQLLEARS | 2
2 | C-terminal domain of wild-type murine FTO (residues D329-end) (domain or fragment, mouse, UniProt Q8BGW1 329-502, looked up, partial alpha-N-gluconylation of the N-terminal His-tag (+178 Da adduct, likely), FTO, mouse, C-terminal domain, residues 329-502; Further details of the construct are in Text S1; also called CmFTO; mFTO 329-502 truncation; source: E. coli, soluble; prepared as previously reported for full length mFTO [8]; not shown: His tag, N-terminal, kept) DYILERCQLALQNVLNDSDDGDVSLKSFDPAVLKQGEEIHNEVEFEWLRQFWFQGNRYKLCTDWWCEPMTHLEGLWKKMESMTNAVLREVKREGLPVEQRSEILSAILVPLTVRQNLRKEWHARCQSRVVRTLPVQQKPDCRPYWEKDDPSMPLPFDLTDVVSELRGQLLEARS | 2
